Test results from patent US10821189B2, “CD38 ligand-drug conjugates for targeted cancer therapy” (THE METHODIST HOSPITAL SYSTEM, priority 2015, dated 2020).

T1: cellular CD38 proteins from MM cells (MM1S) (Homo sapiens, UniProt P28907)
T1 construct: cells were lysed in radioimmunoprecipitation assay (RIPA) buffer; endogenous in cells; host or cells: MM1S (CD38+ myeloma cell line), RIPA lysate
T1 sequence (P28907 1-300): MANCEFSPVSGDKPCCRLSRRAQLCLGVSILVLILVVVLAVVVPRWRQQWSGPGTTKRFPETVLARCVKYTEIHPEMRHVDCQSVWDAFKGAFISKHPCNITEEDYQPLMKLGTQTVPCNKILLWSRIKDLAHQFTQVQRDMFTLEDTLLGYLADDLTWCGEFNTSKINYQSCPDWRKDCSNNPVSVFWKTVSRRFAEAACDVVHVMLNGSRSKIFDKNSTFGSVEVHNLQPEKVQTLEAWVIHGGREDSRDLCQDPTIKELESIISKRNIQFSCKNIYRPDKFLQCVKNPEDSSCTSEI

B1: Aptamer#1S: truncated 61-mer of Aptamer#1 inheriting the intact stem-loop structure, SEQ ID NO: 2 (nucleic acid)
DNA: TCCAGAGTGACGCAGCAGCCAACGTGCTTTCTACCTTATTTTCCGTCACTCTCACTCTGGA
modifications: DNA, backbone and methylation of C not given here; further chemistry not fully specified

Legend:
MM cells (RPMI8226) = assay: Intracellular DOX delivery by confocal microscopy, MM cells; assay type: cell-based, Human; conditions: RPMI8226, 2 h treatment, equal molar DOX
Experimental: (§1) CD38+ MM and CD38− non-MM cells were incubated with free DOX (0.5 μmol/L final concentration) or ApDC (final equivalent concentration of aptamer was 0.1 μmol/L and DOX—0.5 μmol/L) for 1 hour. After washing, cells were resuspended with fresh medium, cultured for 2 hours, and then examined under a 40× objective (Olympus FV 1000 confocal microscope). DOX fluorescence was excited with a 5 mW, 488 nm Ar+ laser.

[1] = DNase I digestion, release of free DOX; assay type: physicochemical
control cells (HDLM2) [2] = assay: Intracellular DOX delivery by confocal microscopy, control cells; assay type: cell-based; conditions: HDLM2, 2 h treatment, equal molar DOX
Experimental: as §1

[3] = tested on: orthotopic MM tumors (RPMI8226GL); assay: Orthotopic MM xenograft mouse model; assay type: in vivo, NOD/SCID IL2rg−/− mice; conditions: 0.5 mg/kg Dox, every other day, 13 treatments, observed up to 60 days
Experimental: 0.5×10^6 RPMI8226 GL cells were inoculated bilaterally into tibiae of 8- to 10-week-old NOD/SCID IL2rg−/− mice. Engraftment was monitored by weekly whole-body bioluminescence imaging on Xenogen IVIS imaging system, as previously reported (Wen, J., Feng, Y, Bjorklund, C. C., Wang, M., Orlowski, R. Z., Shi, Z. Z., Liao, B., O'Hare, J., Zu, Y, Schally, A. V., et al. 2011. Luteinizing Hormone-Releasing Hormone (LHRH)-I antagonist cetrorelix inhibits myeloma cell growth in vitro and in vivo. Mol Cancer Ther 10:148-158). Starting with day 6, mice were treated with free DOX (0.5 mg/kg) or an equivalent ApDC amount (6 mice per group) every other day (13 treatments total). Treatments were administered via the tail vein injection. Bioluminescence intensities representative of tumor mass were quantified by Living Image 3.1. Mice were euthanized by CO2 as they became moribund and their survival curves were plotted with SPSS 10 statistical software (SPSS Inc., Chicago, Ill., USA). All experiments were approved by the IACUC of the Houston Methodist Research Institute. Cells isolated from tumor tissues were examined under a fluorescence microscope for GFP expression. […]

[4] = biological target: T1, cellular CD38 proteins from MM cells (MM1S); assay: Precipitation of cell lysate proteins with biotin-labeled aptamers, western blot with anti-CD38 antibody; assay type: binding; conditions: MM1S lysates
Experimental: Immunoprecipitation with biotin-labeled aptamers was performed as previously reported (Shi, F., Cheng, Y. F., Wang, X. L., and Edge, A. S. 2010. Beta-catenin up-regulates Atohl expression in neural progenitor cells by interaction with an Atohl 3′ enhancer. J Biol Chem 285:392-400). In brief, cells were lysed in radioimmunoprecipitation assay (RIPA) buffer supplemented with Halt protease and phosphatase inhibitor cocktail (Thermo Fisher Scientific). Biotin-labeled aptamers were incubated with lysates for 2 hours at 4° C. in SELEX binding buffer supplemented with Halt protease and phosphatase inhibitor cocktail. Aptamer-bound proteins were collected with streptavidin agarose resin (Thermo Fisher Scientific) following 1 hour incubation at 4° C. Precipitated proteins were washed 5 times with SELEX washing buffer supplemented with Halt protease and phosphatase inhibitor cocktail, boiled in sample buffer, and supernatants were analyzed by western blotting using an anti-CD38 antibody (Cell Signaling Technology, Danvers, Mass.). […]

cultured MM cells (MM1S) = assay: Fluorescence microscopy of a cell mixture stained with Cy3-labeled aptamer, MM cells; assay type: cell-based, Human
Experimental: (§2) For aptamer staining, cells were stained with Cy3-labeled aptamer at 50 nmol/L (for flow cytometry analysis) or 100 nmol/L (for fluorescence microscopy, Olympus America, Melville, N.Y.) for 30 minutes. For 5(6)-Carboxyfluorescein diacetate N-hydroxysuccinimidyl ester (CFSE, Abcam, Cambridge, Mass.) staining, CD38-control cells were pre-stained with 0.5 μmol/L CFSE for 15 minutes according to the manufacturer's specifications and mixed with unlabeled CD38+MM cells, followed by Cy3-labeled aptamer staining for 30 minutes. For antibody staining, cultured cells or mononuclear cells freshly isolated from MM patient bone marrow samples were stained with antibody (BioLegend) as specified for 15 minutes.

[5] = tested on: xenograft tumors of lymphoma (K299GL); assay: Whole body fluorescent imaging of Cy5.5-labeled aptamer, control tumor; assay type: in vivo, NOD/SCID IL2rg−/− mice; conditions: control tumor in the same mouse
Experimental: (§3) In vitro biostability of Aptamer#1S was evaluated as previously described (49). In brief, the aptamer was incubated with human serum (Atlanta Biologicals) for 24 hours, and samples were collected at different times using phenol-chloroform extraction. The amount of undigested aptamer was visualized on a 5% agarose gel. In vivo experiments were done in accordance with the institutional guidelines for the use of laboratory animals. To determine the in vivo biostability of Aptamer#1S, 2×10^6 RPMI8226GL and K299GL cells were inoculated subcutaneously into 8- to 10-week-old NOD/SCID IL2rg−/− mice (Jackson Laboratory, Bar Harbor, Me.). Tumor growth was monitored by weekly whole-body bioluminescence imaging using Xenogen IVIS imaging system (PerkinElmer, Waltham, Mass.). Once tumors formed, 5 ng Cy5.5-labeled APTAMER#1S dissolved in PBS was injected via the tail vein and its signal was monitored on the IVIS system.

[6] = Aptamer biostability in human serum, gel electrophoresis; assay type: in vitro ADME; conditions: human serum at 37° C.
Experimental: as §3

[7] = tested on: CD38 negative control cells (HDLM2); assay: Fluorescence microscopy of a cell mixture stained with Cy3-labeled aptamer, control cells; assay type: cell-based; conditions: control cells pre-stained in green
Experimental: as §2

[8] = DOX loading capacity by quenching of DOX fluorescence; assay type: physicochemical; conditions: components alone, FIG. 3C
Experimental: DOX was purchased from Thermo Fisher Scientific. Since DOX preferentially binds to double-stranded 5′-GC-3′ or 5′-CG-3′ repeats (Meng, L., Yang, L., Zhao, X., Zhang, L., Zhu, H., Liu, C., and Tan, W. 2012. Targeted delivery of chemotherapy agents using a liver cancer-specific aptamer. PLoS One 7:e33434), CG repeats were added to the 5′ end of Aptamer#1S to make the modified Aptamer#1S/CG-Cargo sequence. To determine the optimal molar ratio of aptamer to DOX, Apamer#1S/CG-Cargo sequence was heated at 95° C. for 5 minutes, cooled immediately on ice for 15 minutes, and then incubated with a fixed concentration of DOX (final concentration of DOX was 0.5 μmol/L) at various aptamer/DOX ratios ranging from 1:100 to 1:0.5. After 1 hour, the fluorescence (λEx=[…], λEm=[…]) was measured with a Synergy4 analyzer (BioTek, Winooski, Vt.). The minimal ratio at which the fluorescence of DOX was quenched to the maximal extent was determined as the optimal molar ratio (1:5 of aptamer to DOX) (29).

[9] = tested on: xenograft tumors of MM (RPMI8226GL); assay: Whole body fluorescent imaging of Cy5.5-labeled aptamer, MM tumor; assay type: in vivo, NOD/SCID IL2rg−/− mice
Experimental: as §3

MM cells (MM1S) = assay: Cell binding assay of Cy3-labeled aptamers by flow cytometry, CD38+ MM cells; design: species or system Human; conditions: Cy3-labeled aptamer
Source text: (§4) The top-20 enriched aptamer sequences were synthesized to include Cy3 modification and their affinity and specificity analyzed by flow cytometry. Aptamer#1S was derived by truncating Aptamer#1 based on ValFold software structural prediction (VALWAY Technology Center, NEC Soft Ltd., Tokyo, Japan) (Navani, N. K., Mok, W. K., and Yingfu, L. 2009. In vitro selection of protein-binding DNA aptamers as ligands for biosensing applications. Methods Mol Biol 504:399-415).
as §2

control cells (HDLM2) [10] = assay: Cell binding assay of Cy3-labeled aptamers by flow cytometry, CD38-negative control cells
Source text: as §4, §2

[11] = tested on: CD38+ (RPMI8226 and NCI-H929) and CD38− (K299 and Jeko1) cell lines; assay: Cell binding in additional CD38+ and CD38− cell lines
Experimental: as §2

| Molecule | intracellular DOX delivery into MM cells (MM cells (RPMI8226)) | fluorescence change after DNase treatment [1] | intracellular DOX delivery into control cells (control cells (HDLM2) [2]) | survival of mice bearing orthotopic MM tumors [3] | precipitation of cellular CD38 protein [4] | targeting of MM cells in cell mixture (cultured MM cells (MM1S); Cy3-labeled aptamer) | internalization into MM cells (cultured MM cells (MM1S); intracellular signals) | accumulation in control tumor [5] | time stable in human serum [6] | reaction with control cells in cell mixture [7] | drug loading capacity [8] | accumulation in MM tumor ([9]; Cy5.5-labeled, systemic administration) | duration of specific imaging signals ([9]; post systemic administration) | binding to MM cells (MM1S) (MM cells (MM1S)) | binding to control cells (HDLM2) (control cells (HDLM2) [10]) | affinity and specificity in additional MM and control cells [11] |
| --- | --- | --- | --- | --- | --- | --- | --- | --- | --- | --- | --- | --- | --- | --- | --- | --- |
| COc1cccc2c1C(=O)c1c(O)c3c(c(O)c1C2=O)C[C@@](O)(C(=O)CO)C[C@@H]3O[C@H]1C[C@H](N)[C@H](O)[C@H](C)O1 [free DOX, doxorubicin] | non-specific intracellular drug accumulation | no change | non-specific intracellular drug accumulation | no effect on mouse survival |  |  |  |  |  |  |  |  |  |  |  |  |
| B1 |  |  |  |  | specifically reacted to and immunoprecipitated cellular CD38 proteins | selectively targeted MM cells | internalized into the MM cells | not in control tumor | ≥ 24 h | did not react to control cells | very limited drug loading capacity | selectively accumulated in MM tumor | up to 12 h | specifically targeted MM cells | did not react to CD38-negative control cells | further confirmed |
